Measured values: patent publication US20230356187A1 (AMICOGEN, published 2023)

Columns and labels:
[1] = target: T1, IgG(f) protein (Herceptin scFv); assay: binder coupled to NHS-Sepharose in 96-well filter plate; bound IgG(f) eluted at pH 2.5 and read at OD280, before and after 0.3 M NaOH
T1 construct: Polypeptide of the human IgG1-based scFv region (GenBank AWW43726); Expressed from pET29a(+) (NdeI/XhoI) in E. coli and purified on Ni-NTA resin; also called recombinant immunoglobulin G fragment
T1 sequence (scFv, as listed by the source): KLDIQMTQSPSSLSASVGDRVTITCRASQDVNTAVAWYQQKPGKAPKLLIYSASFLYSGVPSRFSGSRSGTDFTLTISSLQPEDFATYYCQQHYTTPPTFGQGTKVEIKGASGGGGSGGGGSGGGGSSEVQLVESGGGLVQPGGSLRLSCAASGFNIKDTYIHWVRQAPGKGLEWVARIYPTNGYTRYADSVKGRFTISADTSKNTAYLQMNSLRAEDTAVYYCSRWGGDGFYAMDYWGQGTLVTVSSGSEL

[2] = target: T1, IgG(f) protein (Herceptin scFv); assay: binder coupled to NHS-Sepharose in 96-well filter plate; bound IgG(f) eluted and read at OD280 after 0.3 M NaOH
[3] = target: T1, IgG(f) protein (Herceptin scFv); assay: binder coupled to NHS-Sepharose in 96-well filter plate; bound IgG(f) eluted and read at OD280 after 0.3 M NaOH; reference set to 100%
[4] = target: T1, IgG(f) protein (Herceptin scFv); assay: binder coupled to NHS-Sepharose; bound IgG(f) eluted and read at OD280; relative to 0 h (100%), after 5 h in 0.3 M NaOH; reference wB3
Procedure: The library prepared in Example 5 was purified by the same manner as in Examples <1-3>, and the absorbance over time was measured by the same method as in Example 3 to compare the alkali tolerance. The absorbance over time obtained is shown in FIG. 5 as a relative value to the absorbance (100%) at the beginning (0 h).

Row | Binder | binding result [2] | further results
1 | Wild-type Protein L B3 domain (other, also called wB3; wild-type B3 domain; not shown: 6xHis tag) MPKEEVTIKANLIYADGKTQTAEFKGTFEEATAEAYRYADLLAKENGKYTVDVADKGYTLNIKFAGKEKTPEE | – | binding result [1]: binds
2 | Protein L B3 domain variant EPS4(E28G/K43E) (designed binder, not shown: 6xHis tag) MPKEEVTIKANLIYADGKTQTAEFKGTFGEATAEAYRYADLLAEENGKYTVDVADKGYTLNIKFAGKEKTPEE | binds | –
3 | Protein L B3 domain variant BEP4(E28G/N60E) (designed binder, not shown: 6xHis tag) MPKEEVTIKANLIYADGKTQTAEFKGTFGEATAEAYRYADLLAKENGKYTVDVADKGYTLEIKFAGKEKTPEE | binds | –
4 | Protein L B3 domain variant EPS2(E28P) (designed binder, not shown: 6xHis tag) MPKEEVTIKANLIYADGKTQTAEFKGTFPEATAEAYRYADLLAKENGKYTVDVADKGYTLNIKFAGKEKTPEE | binds | –
5 | Protein L B3 domain variant EPS1(E28L) (designed binder, not shown: 6xHis tag) MPKEEVTIKANLIYADGKTQTAEFKGTFLEATAEAYRYADLLAKENGKYTVDVADKGYTLNIKFAGKEKTPEE | binds | –
6 | Protein L B3 domain variant EPS6(E28G/N60F) (designed binder, not shown: 6xHis tag) MPKEEVTIKANLIYADGKTQTAEFKGTFGEATAEAYRYADLLAKENGKYTVDVADKGYTLFIKFAGKEKTPEE | binds | –
7 | Protein L B3 domain variant BEP1(E28G/Y13F) (designed binder, not shown: 6xHis tag) MPKEEVTIKANLIFADGKTQTAEFKGTFGEATAEAYRYADLLAKENGKYTVDVADKGYTLNIKFAGKEKTPEE | binds | –
8 | Protein L B3 domain variant BEP2(E28G/K43P) (designed binder, not shown: 6xHis tag) MPKEEVTIKANLIYADGKTQTAEFKGTFGEATAEAYRYADLLAPENGKYTVDVADKGYTLNIKFAGKEKTPEE | binds | –
9 | Protein L B3 domain variant EP2(E28G) (designed binder, not shown: 6xHis tag) MPKEEVTIKANLIYADGKTQTAEFKGTFGEATAEAYRYADLLAKENGKYTVDVADKGYTLNIKFAGKEKTPEE | – | binding result [3]: binds
10 | Protein L B3 domain variant EPS3(E28W) (designed binder, not shown: 6xHis tag) MPKEEVTIKANLIYADGKTQTAEFKGTFWEATAEAYRYADLLAKENGKYTVDVADKGYTLNIKFAGKEKTPEE | binds | –
11 | Protein L B3 domain variant BEP3(E28G/D51V) (designed binder, not shown: 6xHis tag) MPKEEVTIKANLIYADGKTQTAEFKGTFGEATAEAYRYADLLAKENGKYTVVVADKGYTLNIKFAGKEKTPEE | binds | –
12 | Protein L B3 domain variant EP1(E28A) (designed binder, not shown: 6xHis tag) MPKEEVTIKANLIYADGKTQTAEFKGTFAEATAEAYRYADLLAKENGKYTVDVADKGYTLNIKFAGKEKTPEE | – | binding result [1]: binds
13 | Protein L B3 domain variant mBF4 (Y13F/E28G/K43P) (designed binder, also called mBF monomer; not shown: 6xHis tag) MPKEEVTIKANLIFADGKTQTAEFKGTFGEATAEAYRYADLLAPENGKYTVDVADKGYTLNIKFAGKEKTPEE | – | fold increase in alkali tolerance (residual scFv binding activity after 5 hours in 0.3 M NaOH) compared to wB3 [4]: ~2.7 fold
14 | Protein L B3 domain variant EPS5(E28G/D51T) (designed binder, not shown: 6xHis tag) MPKEEVTIKANLIYADGKTQTAEFKGTFGEATAEAYRYADLLAKENGKYTVTVADKGYTLNIKFAGKEKTPEE | binds | –
